For assay [1], the target named is T1, hGARP-proTGFβ1 (human, UniProt Q14392 18-627; P01137 30-390, limits assumed).
T1 construct: LLC as m1; Same id used for the cell-surface complex in reporter assays; also called human GARP-proTGFβ1 complex; GARP-ProTGFb1
As to the kind of experiment: BLI (Octet).

In assay [2] the target is T2, hLTBP3-proTGFβ1 (human, UniProt Q9NS15 44-1303; P01137 30-390, limits assumed).
T2 construct: LLC as m1; Same id used for the cell-made complex in reporter assays; also called human LTBP3-proTGFβ1 complex; LTBP3-ProTGFb1
As to the kind of experiment: BLI (Octet).

Assay [3] deals with T3, hLTBP1-proTGFβ1 (human, UniProt Q14766 347-1721; P01137 30-390, limits assumed).
T3 construct: Large latent complex (LLC): proTGFβ1 dimer disulfide-linked to one presenting molecule; recombinant, purified, biotinylated in BLI/SPR; The same id is used for the complex made by transfected cells in the reporter assays; also called human LTBP1-proTGFβ1 complex; LTBP1-ProTGFb1
As to the kind of experiment: BLI (Octet).

Assay [4] addresses T4, hLRRC33-proTGFβ1 (human, UniProt Q86YC3 19-650; P01137 30-390, limits assumed).
T4 construct: LLC as m1; Same id used for the cell-surface complex in reporter assays; also called human LRRC33-proTGFβ1 complex; LRRC33-ProTGFb1
As to the kind of experiment: BLI (Octet).

The target of assay [5] is T1, hGARP-proTGFβ1. Put plainly: MSD-SET, hIgG4. The method, then:
(§1) For solution equilibrium titration-based binding assays, protein complexes that comprise one of the presenting molecules such as those shown above may be employed as antigen (presenting molecule-TGFβ1 complex, or an LLC). Test antibodies are allowed to form antigen-antibody complex in solution. Antigen-antibody reaction mixtures are incubated to allow an equilibrium to be reached; the amount of the antigen-antibody complex present in the assay reactions can be measured by suitable means well known in the art. As compared to BLI-based assays, SET-based assays are less affected by on/off rates of the antigen-antibody complex, allowing sensitive detection of very high affinity interactions.

Assay [6] concerns the target T2, hLTBP3-proTGFβ1. Put plainly: MSD-SET, hIgG4. The method, then:
as §1

Assay [7] has as its target T3, hLTBP1-proTGFβ1. As to the kind of experiment: MSD-SET, hIgG4. The method, then:
as §1

Assay [8] has as its target T4, hLRRC33-proTGFβ1. Put plainly: MSD-SET, hIgG4. On the procedure:
as §1

Assay [9] concerns the target T1, hGARP-proTGFβ1. Put plainly: cell-based or functional assay.
Assay [10] deals with T2, hLTBP3-proTGFβ1. Put plainly: cell-based or functional assay.
Assay [11] addresses T3, hLTBP1-proTGFβ1. As to the kind of experiment: cell-based or functional assay.
For assay [12], the target named is T4, hLRRC33-proTGFβ1. Put plainly: cell-based or functional assay.
Assay [13] concerns the target T5, mLTBP1-proTGFβ1 (mouse).
T5 construct: Murine LLC; also called murine LTBP1-proTGFβ1 complex
As to the kind of experiment: MSD-SET.

The target of assay [14] is T1, hGARP-proTGFβ1. As to the kind of experiment: MSD-SET.
The target of assay [15] is mLRRC33-proTGFβ1 (murine, UniProt Q8BMT4 20-651). Put plainly: MSD-SET.
Assay [16] concerns the target T2, hLTBP3-proTGFβ1. As to the kind of experiment: MSD-SET.
In assay [17] the target is T3, hLTBP1-proTGFβ1. Put plainly: MSD-SET.
Assay [18] addresses T6, mLTBP3-proTGFβ1 (mouse).
T6 construct: Murine LLC; also called murine LTBP3-proTGFβ1 complex
As to the kind of experiment: MSD-SET.

For assay [19], the target named is T7, mGARP-proTGFβ1 (mouse).
T7 construct: Murine LLC; also called murine GARP-proTGFβ1 complex
As to the kind of experiment: MSD-SET.

The target in assay [20] is T4, hLRRC33-proTGFβ1. Put plainly: MSD-SET.

T3 sequence (Q14766 347-1721 limits assumed, chain 1 of 2): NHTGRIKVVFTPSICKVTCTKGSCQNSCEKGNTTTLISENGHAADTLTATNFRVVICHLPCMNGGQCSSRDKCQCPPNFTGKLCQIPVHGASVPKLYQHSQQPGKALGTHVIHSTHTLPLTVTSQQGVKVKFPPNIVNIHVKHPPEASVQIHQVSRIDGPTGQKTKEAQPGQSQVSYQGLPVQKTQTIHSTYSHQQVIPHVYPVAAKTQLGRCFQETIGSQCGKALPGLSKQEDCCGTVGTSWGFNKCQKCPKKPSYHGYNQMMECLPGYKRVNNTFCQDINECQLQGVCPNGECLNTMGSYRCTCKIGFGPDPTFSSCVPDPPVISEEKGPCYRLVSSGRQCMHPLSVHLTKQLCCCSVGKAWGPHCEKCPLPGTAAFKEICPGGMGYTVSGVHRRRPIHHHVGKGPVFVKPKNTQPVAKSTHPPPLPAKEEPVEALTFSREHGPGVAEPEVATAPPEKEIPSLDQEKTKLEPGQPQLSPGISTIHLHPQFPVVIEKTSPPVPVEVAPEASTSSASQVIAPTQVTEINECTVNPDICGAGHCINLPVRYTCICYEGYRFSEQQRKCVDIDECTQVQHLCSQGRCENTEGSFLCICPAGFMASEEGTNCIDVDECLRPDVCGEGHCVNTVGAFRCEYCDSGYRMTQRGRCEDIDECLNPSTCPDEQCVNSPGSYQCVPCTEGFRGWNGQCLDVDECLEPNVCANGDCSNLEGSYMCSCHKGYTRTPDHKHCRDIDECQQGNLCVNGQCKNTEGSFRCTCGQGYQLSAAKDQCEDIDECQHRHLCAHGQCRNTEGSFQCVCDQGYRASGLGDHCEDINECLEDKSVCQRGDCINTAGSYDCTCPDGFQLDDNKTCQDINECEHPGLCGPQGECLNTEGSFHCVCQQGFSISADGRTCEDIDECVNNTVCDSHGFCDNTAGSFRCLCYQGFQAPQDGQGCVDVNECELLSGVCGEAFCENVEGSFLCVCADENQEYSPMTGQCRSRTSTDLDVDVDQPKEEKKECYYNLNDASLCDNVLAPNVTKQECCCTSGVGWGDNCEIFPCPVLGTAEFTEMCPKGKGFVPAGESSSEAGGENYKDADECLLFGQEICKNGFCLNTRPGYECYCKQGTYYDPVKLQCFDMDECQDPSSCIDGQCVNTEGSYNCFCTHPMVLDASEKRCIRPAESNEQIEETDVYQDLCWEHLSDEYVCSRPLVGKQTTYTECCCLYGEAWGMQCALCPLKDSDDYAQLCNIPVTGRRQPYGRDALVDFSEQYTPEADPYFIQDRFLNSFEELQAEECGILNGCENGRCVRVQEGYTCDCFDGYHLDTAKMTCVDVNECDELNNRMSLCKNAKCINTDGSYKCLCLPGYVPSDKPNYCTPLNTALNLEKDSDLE
T3 sequence (P01137 30-390 limits assumed, chain 2 of 2): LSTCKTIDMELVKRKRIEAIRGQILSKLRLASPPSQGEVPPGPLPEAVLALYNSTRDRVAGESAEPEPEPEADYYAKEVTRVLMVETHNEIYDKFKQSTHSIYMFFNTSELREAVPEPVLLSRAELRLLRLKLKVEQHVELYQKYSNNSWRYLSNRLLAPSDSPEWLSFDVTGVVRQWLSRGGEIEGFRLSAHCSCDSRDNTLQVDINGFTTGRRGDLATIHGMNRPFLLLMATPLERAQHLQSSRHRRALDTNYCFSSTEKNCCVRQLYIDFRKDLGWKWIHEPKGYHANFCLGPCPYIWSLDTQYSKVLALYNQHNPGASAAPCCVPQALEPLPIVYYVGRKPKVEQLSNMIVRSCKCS
T1 sequence (Q14392 18-627 limits assumed, chain 1 of 2): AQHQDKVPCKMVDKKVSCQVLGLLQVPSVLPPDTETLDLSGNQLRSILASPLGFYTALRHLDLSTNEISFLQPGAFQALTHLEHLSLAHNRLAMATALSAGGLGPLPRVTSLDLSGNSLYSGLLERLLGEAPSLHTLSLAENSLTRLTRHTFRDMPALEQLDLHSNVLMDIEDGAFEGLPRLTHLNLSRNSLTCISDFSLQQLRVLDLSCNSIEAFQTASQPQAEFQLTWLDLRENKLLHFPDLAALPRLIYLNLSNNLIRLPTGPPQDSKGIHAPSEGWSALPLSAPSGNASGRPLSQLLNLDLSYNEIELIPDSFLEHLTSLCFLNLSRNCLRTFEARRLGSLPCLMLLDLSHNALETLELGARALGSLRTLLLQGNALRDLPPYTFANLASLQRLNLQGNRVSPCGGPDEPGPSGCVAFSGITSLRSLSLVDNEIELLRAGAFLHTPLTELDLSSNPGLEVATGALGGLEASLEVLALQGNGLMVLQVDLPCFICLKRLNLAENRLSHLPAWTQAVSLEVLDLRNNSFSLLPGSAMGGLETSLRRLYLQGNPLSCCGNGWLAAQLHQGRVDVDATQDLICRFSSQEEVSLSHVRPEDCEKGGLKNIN
T1 sequence (P01137 30-390 limits assumed, chain 2 of 2): as the sequence (P01137 30-390 limits assumed, chain 2 of 2) above
T2 sequence (Q9NS15 44-1303 limits assumed, chain 1 of 2): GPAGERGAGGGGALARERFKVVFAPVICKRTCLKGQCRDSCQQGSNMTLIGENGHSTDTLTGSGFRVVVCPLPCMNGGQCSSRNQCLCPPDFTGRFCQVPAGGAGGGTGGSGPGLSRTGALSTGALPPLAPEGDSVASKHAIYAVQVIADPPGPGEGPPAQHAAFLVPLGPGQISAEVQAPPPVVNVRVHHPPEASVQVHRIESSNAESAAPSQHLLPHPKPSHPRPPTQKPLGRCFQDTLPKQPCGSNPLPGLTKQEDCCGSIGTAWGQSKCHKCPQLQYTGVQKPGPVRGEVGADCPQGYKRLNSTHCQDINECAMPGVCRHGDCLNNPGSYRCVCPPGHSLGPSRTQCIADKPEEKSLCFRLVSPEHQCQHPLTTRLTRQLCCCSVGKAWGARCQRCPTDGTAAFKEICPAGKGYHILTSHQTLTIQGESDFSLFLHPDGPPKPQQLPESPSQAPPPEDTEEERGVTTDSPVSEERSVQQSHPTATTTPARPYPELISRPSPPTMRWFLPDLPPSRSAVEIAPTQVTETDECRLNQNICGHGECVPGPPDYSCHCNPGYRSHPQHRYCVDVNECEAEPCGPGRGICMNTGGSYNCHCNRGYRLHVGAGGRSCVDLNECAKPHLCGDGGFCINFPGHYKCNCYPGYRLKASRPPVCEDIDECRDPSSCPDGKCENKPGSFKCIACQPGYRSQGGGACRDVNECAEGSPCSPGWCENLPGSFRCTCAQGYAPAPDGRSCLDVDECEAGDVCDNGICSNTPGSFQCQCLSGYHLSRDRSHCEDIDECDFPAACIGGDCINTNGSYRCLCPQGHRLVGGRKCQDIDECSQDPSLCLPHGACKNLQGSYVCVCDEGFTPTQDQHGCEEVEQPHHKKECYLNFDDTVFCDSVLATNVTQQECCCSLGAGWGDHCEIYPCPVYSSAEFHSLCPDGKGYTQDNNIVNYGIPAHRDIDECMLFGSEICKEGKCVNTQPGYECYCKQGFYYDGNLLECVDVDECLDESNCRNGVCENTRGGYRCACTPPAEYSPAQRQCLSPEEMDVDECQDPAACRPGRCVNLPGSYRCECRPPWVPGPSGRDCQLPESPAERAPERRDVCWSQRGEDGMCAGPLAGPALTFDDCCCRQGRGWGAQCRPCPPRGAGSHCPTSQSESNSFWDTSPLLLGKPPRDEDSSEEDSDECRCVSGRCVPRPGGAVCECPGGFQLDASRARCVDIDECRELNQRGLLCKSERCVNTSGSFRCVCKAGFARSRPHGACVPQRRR
T2 sequence (P01137 30-390 limits assumed, chain 2 of 2): as the sequence (P01137 30-390 limits assumed, chain 2 of 2) above
T4 sequence (Q86YC3 19-650 limits assumed, chain 1 of 2): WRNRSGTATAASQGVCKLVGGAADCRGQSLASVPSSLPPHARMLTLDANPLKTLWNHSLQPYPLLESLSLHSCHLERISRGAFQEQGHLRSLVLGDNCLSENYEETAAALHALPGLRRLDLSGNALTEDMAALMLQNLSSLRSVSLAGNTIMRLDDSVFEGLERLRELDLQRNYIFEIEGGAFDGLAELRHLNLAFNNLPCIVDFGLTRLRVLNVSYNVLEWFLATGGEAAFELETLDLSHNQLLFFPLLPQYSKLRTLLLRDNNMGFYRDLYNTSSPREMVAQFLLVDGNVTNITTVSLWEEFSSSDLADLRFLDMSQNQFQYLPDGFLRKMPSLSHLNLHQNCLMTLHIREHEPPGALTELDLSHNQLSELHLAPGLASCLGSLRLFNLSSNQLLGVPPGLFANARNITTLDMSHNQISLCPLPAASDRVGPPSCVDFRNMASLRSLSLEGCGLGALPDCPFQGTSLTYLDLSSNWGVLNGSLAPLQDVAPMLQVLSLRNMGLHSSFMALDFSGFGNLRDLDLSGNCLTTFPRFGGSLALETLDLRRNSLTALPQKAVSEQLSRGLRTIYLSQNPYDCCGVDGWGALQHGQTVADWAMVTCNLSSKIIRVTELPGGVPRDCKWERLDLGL
T4 sequence (P01137 30-390 limits assumed, chain 2 of 2): as the sequence (P01137 30-390 limits assumed, chain 2 of 2) above

B1: Ab3 (antibody, V domains shown)
VH: EVQLLESGGGLVQPGGSLRLSCAASGFTFRNYAMSWVRQAPGKGLEWVSSISGSGGATYYADSVKGRFTISRDNSKNTLYLQMNSLRAEDTAVYYCARVSSGHWDFDYWGQGTLVTVSS
VL: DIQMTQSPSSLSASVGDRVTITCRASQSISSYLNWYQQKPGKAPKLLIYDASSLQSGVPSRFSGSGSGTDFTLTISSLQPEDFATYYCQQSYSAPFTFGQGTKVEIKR
As to B1, the dissociation constant Kd in [1] came to 17.3 nM; in assay [2], 0.459 nM; in [3], 0.47 nM; in [4], 8.52 nM; in [5], 28 nM; in assay [6] it was 16.2 nM. Moreover, the values for the Kd in assay [7] and in [8] were 13 nM and 35 nM, respectively. Besides, the “IC50, in vitro potency assay” value in assay [9] amounted to 0.981 nM; in assay [10], 10.4 nM; in assay [11] it was 24.3 nM; in assay [12] it was 0.858 nM.

B2: Ab6 (antibody, V domains shown)
VH: EVQLVESGGGLVQPGGSLRLSCTASGFTFSSFSMDWVRQAPGKGLEWVSYISPSADTIYYADSVKGRFTISRDNAKNTLYLQMNSLRAEDTAVYYCARGVLDYGDMLMPWGQGTLVTVSS
VL: DIQMTQSPSSLSASVGDRVTITCQASQDITNYLNWYQQKPGKAPKLLIYDASNLETGVPSRFSGSGSGTDFTFTISSLQPEDIATYYCQQADNHPPWTFGGGTKVEIKR
notes: Fully human IgG4/kappa
Turning to B2, the equilibrium dissociation constant (Kd) in assay [1] was determined as 0.404 nM; in [2], 0.123 nM; in [3], 0.207 nM; in assay [4], 0.336 nM; in [5] it was 0.027 nM; in assay [6] it was 0.029 nM. In addition, the Kd was determined as 0.018 nM in assay [7]; 0.063 nM in assay [8]; 0.024 nM in assay [13]; 0.027 nM in assay [14]; 0.048 nM in assay [15]; 0.029 nM in assay [16]. The Kd in assay [17] turned out to be 0.018 nM; in assay [18], 0.028 nM; in assay [19], 0.021 nM; in [20], 0.063 nM.

The record behind these values is US20240294623A1 (SCHOLAR ROCK, published 2024).
